The values that follow come from article doi:10.1101/2020.01.04.893909 (bioRxiv, 2020).

The data set deals with the molecule itself. In words: SEC.

B1: S. cerevisiae homologue of GAP (Rna1), recombinant (natural protein, UniProt P11745 1-407, looked up)
chain: MATLHFVPQHEEEQVYSISGKALKLTTSDDIKPYLEELAALKTCTKLDLSGNTIGTEASEALAKCIAENTQVRESLVEVNFADLYTSRLVDEVVDSLKFLLPVLLKCPHLEIVNLSDNAFGLRTIELLEDYIAHAVNIKHLILSNNGMGPFAGERIGKALFHLAQNKKAASKPFLETFICGRNRLENGSAVYLALGLKSHSEGLKVVKLYQNGIRPKGVATLIHYGLQYLKNLEILDLQDNTFTKHASLILAKALPTWKDSLFELNLNDCLLKTAGSDEVFKVFTEVKFPNLHVLKFEYNEMAQETIEVSFLPAMEKGNLPELEKLEINGNRLDEDSDALDLLQSKFDDLEVDDFEEVDSEDEEGEDEEDEDEDEKLEEIETERLEKELLEVQVDDLAERLAETEIK
As for B1, the binding result is “binds”.
